Measured values: paper PMC2879156

Tests used:
SarA = molecular target: T1, SarA (Staphylococcus aureus, UniProt Q7A1N5 1-124); experiment: EMSA
T1 sequence: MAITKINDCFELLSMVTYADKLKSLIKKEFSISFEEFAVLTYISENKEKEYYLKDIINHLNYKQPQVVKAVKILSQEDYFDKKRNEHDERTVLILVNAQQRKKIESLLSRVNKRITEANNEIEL

SarA C9A = SarA C9A (Staphylococcus aureus, UniProt Q7A1N5 1-124, C9A); experiment: EMSA

B1: agr B1/B2 (dsDNA)
DNA 1: ATGTTAAAATATTAAATACAAATTACATTTAACAGTTAAGTATTTATTTCCTACAGTTA
DNA 2: TAACTGTAGGAAATAAATACTTAACTGTTAAATGTAATTTGTATTTAATATTTTAACAT
Question: Does B1 bind (SarA)?
Answer: binds

Question: Does B1 bind (SarA C9A)?
Answer: binds
